Test results from patent US20260232827A1 (Zymeworks, published 2026).

T1: human sodium-dependent phosphate transporter 2B (NaPi2b) (human, UniProt O95436 1-690)
T1 construct: UniProt ID is given as 095436 [sic]; also called hNaPi2b; Hu NaPi2b
T1 sequence: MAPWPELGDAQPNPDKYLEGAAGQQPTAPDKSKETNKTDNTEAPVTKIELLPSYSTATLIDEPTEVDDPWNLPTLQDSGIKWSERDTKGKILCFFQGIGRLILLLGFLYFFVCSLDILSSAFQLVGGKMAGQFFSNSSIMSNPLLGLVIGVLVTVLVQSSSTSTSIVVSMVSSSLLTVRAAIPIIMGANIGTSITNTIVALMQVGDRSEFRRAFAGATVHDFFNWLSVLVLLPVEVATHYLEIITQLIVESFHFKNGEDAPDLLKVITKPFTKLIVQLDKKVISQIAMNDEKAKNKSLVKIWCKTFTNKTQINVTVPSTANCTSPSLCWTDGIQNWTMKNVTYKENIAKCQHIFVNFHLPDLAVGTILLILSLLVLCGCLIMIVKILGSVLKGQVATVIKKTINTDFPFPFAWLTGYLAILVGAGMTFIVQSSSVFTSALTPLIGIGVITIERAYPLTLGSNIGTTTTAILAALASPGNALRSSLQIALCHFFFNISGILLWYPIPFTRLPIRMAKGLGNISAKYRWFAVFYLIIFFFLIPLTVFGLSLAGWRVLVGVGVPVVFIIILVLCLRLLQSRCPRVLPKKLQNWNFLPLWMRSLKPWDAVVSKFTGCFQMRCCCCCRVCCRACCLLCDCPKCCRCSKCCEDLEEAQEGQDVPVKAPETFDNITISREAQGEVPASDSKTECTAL

T2: human sodium-dependent phosphate transporter 2B (NaPi2b) (human, UniProt O95436 1-690)
T2 sequence: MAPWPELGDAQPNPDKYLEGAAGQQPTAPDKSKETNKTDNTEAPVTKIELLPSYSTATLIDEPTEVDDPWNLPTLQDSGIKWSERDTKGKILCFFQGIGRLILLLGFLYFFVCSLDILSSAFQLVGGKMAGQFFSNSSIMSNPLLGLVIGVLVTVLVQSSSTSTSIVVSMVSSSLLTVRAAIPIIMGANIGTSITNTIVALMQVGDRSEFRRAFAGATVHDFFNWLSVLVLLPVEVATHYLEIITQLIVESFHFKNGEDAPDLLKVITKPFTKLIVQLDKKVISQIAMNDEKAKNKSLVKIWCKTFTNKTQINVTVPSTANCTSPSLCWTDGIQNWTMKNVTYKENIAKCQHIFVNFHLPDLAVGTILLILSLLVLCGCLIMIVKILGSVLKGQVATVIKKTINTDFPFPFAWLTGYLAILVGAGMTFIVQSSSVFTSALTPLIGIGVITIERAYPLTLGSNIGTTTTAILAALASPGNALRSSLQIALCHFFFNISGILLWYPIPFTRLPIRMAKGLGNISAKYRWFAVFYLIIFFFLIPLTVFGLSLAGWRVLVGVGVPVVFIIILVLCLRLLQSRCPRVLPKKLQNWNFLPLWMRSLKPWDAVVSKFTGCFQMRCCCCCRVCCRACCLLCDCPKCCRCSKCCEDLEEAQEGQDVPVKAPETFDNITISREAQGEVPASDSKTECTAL


Tests used:
[1] = target: T1, human sodium-dependent phosphate …; assay: flow cytometry, IGROV-1 cells (endogenous NaPi2b); apparent Kd
Procedure: Briefly, cells were seeded at 50,000 cells/well in conical-bottom 96-well plates and treated with test antibody for 24 hours at 4° C. to prevent internalization. […] Following incubation and washing, fluorescence was detected by flow cytometry on a BD LSRFortessa™ Cell Analyzer (BD Biosciences, Franklin Lake, NJ) with 1,000 minimum events collected per well.

[2] = target: T1, human sodium-dependent phosphate …; assay: flow cytometry, IGROV-1 cells (endogenous NaPi2b); parameters: unit not given here
[3] = target: T2, human sodium-dependent phosphate …; assay: cell-based or functional assay

Row | Binder | Kd [1] | Bmax [2] | EC50, in vitro cytotoxicity, 2D monolayer, HCC-78 [3] | EC50, in vitro cytotoxicity, 2D monolayer, IGROV-1 [3]
1 | v29451 (H2L3) (antibody, human IgG1, kappa, V domains shown, Humanized IgG1/kappa) VH: QVQLVQSGAEVKKPGASVKVSCKASGFTFTSYNVHWVRQAPGQGLEWIAAISPGNGDLSYAQKFQGRVTMTVDTSTSTVYMELSSLRSEDTAVYYCARGRTGMGAVDYWGQGTLVTVSS VL: DVQMTQSPSSLSASVGDRVTITCRASQDVYSYLNWYQQKPGKAVKLLIYYTSRLQSGVPSRFSGSGSGTDYTLTISSLQPEDIATYYCQQYNIFPWTFGQGTKLEIKR | 1.49 nM | 46200 | – | –
2 | v29460 (H1L1) (antibody, human IgG1, kappa, V domains shown, Humanized IgG1/kappa) VH: QVQLVQSGAEVKKPGASVKVSCKASGFTFTSYNVHWVRQAPGQGLEWMGAISPGNGDLSYAQKFQGRVTMTRDTSTSTVYMELSSLRSEDTAVYYCARGRTGMGAVDYWGQGTLVTVSS VL: DIQMTQSPSSLSASVGDRVTITCRASQDVYSYLNWYQQKPGKAPKLLIYYTSRLQSGVPSRFSGSGSGTDFTLTISSLQPEDFATYYCQQYNIFPWTFGQGTKLEIKR | 1.67 nM | 40100 | – | –
3 | v29458 (H3L1) (antibody, human IgG1, kappa, V domains shown, Humanized IgG1/kappa) VH: QVQLVQSGAEVKKPGASVKMSCKASGFTFTSYNVHWVRQAPGQGLEWIAAISPGNGDLSYAQKFQGRATLTVDTSTSTAYMELSSLRSEDTAVYYCARGRTGMGAVDYWGQGTLVTVSS VL: DIQMTQSPSSLSASVGDRVTITCRASQDVYSYLNWYQQKPGKAPKLLIYYTSRLQSGVPSRFSGSGSGTDFTLTISSLQPEDFATYYCQQYNIFPWTFGQGTKLEIKR | 1.39 nM | 40800 | – | –
4 | v29453 (H4L2) (antibody, human IgG1, kappa, V domains shown, Humanized IgG1/kappa; clones CL_#21506 and CL_#21508) VH: QVQLVQSGAEVKKPGASVKMSCKASGFTFTSYNVHWVRQAPGQGLEWIAAISPGNGDLSYAQKFQGRATLTVDRSTSTAYMELSSLRSEDTAVYYCARGRTGMGAVDYWGQGTLVTVSS VL: DVQMTQSPSSLSASVGDRVTITCRASQDVYSYLNWYQQKPGKAVKLLIYYTSRLQSGVPSRFSGSGSGTDYTLTISSLQPEDFATYYCQQYNIFPWTFGQGTKLEIKR | 0.82 nM | 44500 | – | –
5 | v29456-MT-GGFG-AM-Compound 136 DAR 8 (antibody, human IgG1, kappa, drug-linker MT-GGFG-AM-Compound 136 on cysteine thiols after TCEP reduction, positions not given; DAR 8 for the whole antibody) heavy: not shown light: DVQMTQSPSSLSASVGDRVTITCRASQDVYSYLNWYQQKPGKAVKLLIYYTSRLQSGVPSRFSGSGSGTDYTLTISSLQPEDFATYYCQQYNIFPWTFGQGTKLEIKRTVAAPSVFIFPPSDEQLKSGTASVVCLLNNFYPREAKVQWKVDNALQSGNSQESVTEQDSKDSTYSLSSTLTLSKADYEKHKVYACEVTHQGLSSPVTKSFNRGEC | – | – | 0.43 nM | 4.48 nM
6 | v29456-MT-GGFG-AM-Compound 129 DAR 8 (antibody, human IgG1, kappa, drug-linker MT-GGFG-AM-Compound 129 on cysteine thiols after TCEP reduction, positions not given; DAR 8 for the whole antibody) heavy: not shown light: DVQMTQSPSSLSASVGDRVTITCRASQDVYSYLNWYQQKPGKAVKLLIYYTSRLQSGVPSRFSGSGSGTDYTLTISSLQPEDFATYYCQQYNIFPWTFGQGTKLEIKRTVAAPSVFIFPPSDEQLKSGTASVVCLLNNFYPREAKVQWKVDNALQSGNSQESVTEQDSKDSTYSLSSTLTLSKADYEKHKVYACEVTHQGLSSPVTKSFNRGEC | – | – | 0.42 nM | 1.11 nM
7 | v29456-MT-GGFG-Compound 148 DAR 8 (antibody, human IgG1, kappa, drug-linker MT-GGFG-Compound 148 on cysteine thiols after TCEP reduction, positions not given; DAR 8 for the whole antibody) heavy: not shown light: DVQMTQSPSSLSASVGDRVTITCRASQDVYSYLNWYQQKPGKAVKLLIYYTSRLQSGVPSRFSGSGSGTDYTLTISSLQPEDFATYYCQQYNIFPWTFGQGTKLEIKRTVAAPSVFIFPPSDEQLKSGTASVVCLLNNFYPREAKVQWKVDNALQSGNSQESVTEQDSKDSTYSLSSTLTLSKADYEKHKVYACEVTHQGLSSPVTKSFNRGEC | – | – | 1.98 nM | –
8 | v18993 (lifastuzumab)-DL2 (antibody, human IgG1, kappa, as above; maleimide functionalized auristatin drug linker (DL2); sites and DAR not stated, also called lifastuzumab-DL2 ADC) heavy 1: GEVQLVESGGGLVQPGGSLRLSCAASGFSFSDFAMSWVRQAPGKGLEWVATIGRVAFHTYYPDSMKGRFTISRDNSKNTLYLQMNSLRAEDTAVYYCARHRGFDVGHFDFWGQGTLVTVSSASTKGPSVFPLAPSSKSTSGGTAALGCLVKDYFPEPVTVSWNSGALTSGVHTFPAVLQSSGLYSLSSVVTVPSSSLGTQTYICNVNHKPSNTKVDKKVEPKSCDKTHTCPPCPAPELLGGPSVFLFPPKPKDTLMISRTPEVTCVVVDVSHEDPEVKFNWYVDGVEVHNAKTKPREEQYNSTYRVVSVLTVLHQDWLNGKEYKCKVSNKALPAPIEKTISKAKGQPREPQVYVYPPSRDELTKNQVSLTCLVKGFYPSDIAVEWESNGQPENNYKTTPPVLDSDGSFALVSKLTVDKSRWQQGNVFSCSVMHEALHNHYTQKSLSLSPG heavy 2: not shown light: GDIQMTQSPSSLSASVGDRVTITCRSSETLVHSSGNTYLEWYQQKPGKAPKLLIYRVSNRFSGVPSRFSGSGSGTDFTLTISSLQPEDFATYYCFQGSFNPLTFGQGTKVEIKRTVAAPSVFIFPPSDEQLKSGTASVVCLLNNFYPREAKVQWKVDNALQSGNSQESVTEQDSKDSTYSLSSTLTLSKADYEKHKVYACEVTHQGLSSPVTKSFNRGEC | 3 nM | 39800 | – | –
